The numbers were not newly measured in article PMC3249237, which cites them from elsewhere.

pKd: −log10 of the molar value.

The target of the data set is LRP6 E1E2 (Homo sapiens) (UniProt O75581).
LRP6 E1E2 (Homo sapiens), sequence (O75581 20-630): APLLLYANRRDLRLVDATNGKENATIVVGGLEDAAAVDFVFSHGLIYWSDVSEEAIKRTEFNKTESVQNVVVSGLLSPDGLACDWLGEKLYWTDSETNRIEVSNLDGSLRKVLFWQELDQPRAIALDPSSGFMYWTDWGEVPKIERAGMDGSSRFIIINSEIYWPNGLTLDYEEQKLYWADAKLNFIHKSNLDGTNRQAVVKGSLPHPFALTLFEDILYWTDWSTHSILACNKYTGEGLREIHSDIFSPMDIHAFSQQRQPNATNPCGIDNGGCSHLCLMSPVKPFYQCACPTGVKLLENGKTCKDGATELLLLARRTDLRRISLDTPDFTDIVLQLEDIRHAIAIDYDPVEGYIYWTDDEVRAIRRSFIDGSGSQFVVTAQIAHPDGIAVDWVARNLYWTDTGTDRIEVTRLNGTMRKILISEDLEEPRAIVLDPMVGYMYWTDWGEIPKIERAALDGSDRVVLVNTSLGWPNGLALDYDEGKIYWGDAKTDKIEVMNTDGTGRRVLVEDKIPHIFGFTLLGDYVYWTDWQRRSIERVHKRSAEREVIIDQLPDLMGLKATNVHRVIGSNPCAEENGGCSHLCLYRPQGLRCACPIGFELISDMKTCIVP

DKK1, sequence (O94907 32-266): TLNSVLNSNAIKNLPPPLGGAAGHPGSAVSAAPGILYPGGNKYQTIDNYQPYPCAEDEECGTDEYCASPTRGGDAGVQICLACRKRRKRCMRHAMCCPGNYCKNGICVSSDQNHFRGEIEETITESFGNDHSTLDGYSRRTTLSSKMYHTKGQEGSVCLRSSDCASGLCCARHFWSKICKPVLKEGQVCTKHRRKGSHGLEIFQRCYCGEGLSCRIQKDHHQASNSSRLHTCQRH

For orientation: pKd means the negative decadic logarithm of the Kd, by convention in mol/L. As for DKK1 (from UniProt O94907), the pKd was 7.19.
